In the assay the target is Human trophoblast cell-surface antigen (TROP-2) (human) (UniProt P09758). Nature of the assay: cell-based or functional assay.
Chain of Human trophoblast cell-surface antigen (TROP-2) (human) (P09758 27-323): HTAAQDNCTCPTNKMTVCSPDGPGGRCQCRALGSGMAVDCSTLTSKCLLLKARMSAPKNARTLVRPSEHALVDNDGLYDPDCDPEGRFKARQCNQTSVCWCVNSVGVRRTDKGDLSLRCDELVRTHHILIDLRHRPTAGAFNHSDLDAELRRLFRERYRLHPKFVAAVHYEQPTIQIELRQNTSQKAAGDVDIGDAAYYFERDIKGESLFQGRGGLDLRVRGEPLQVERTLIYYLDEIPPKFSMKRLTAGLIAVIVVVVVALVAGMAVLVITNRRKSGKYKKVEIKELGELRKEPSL

In the case of hRS7-CL2A-SN-38 (antibody), the ADC/free SN-38 ratio of IC50, in vitro cytotoxicity, BxPC-3 stood at 2.8; the ADC/free SN-38 ratio of IC50, in vitro cytotoxicity, COLO 205 was 1.91; the ADC/free SN-38 ratio of IC50, in vitro cytotoxicity, Calu-3 worked out at 1.39; the ADC/free SN-38 ratio of IC50, in vitro cytotoxicity, Capan-1 worked out at 2. Also, the ADC/free SN-38 ratio of IC50, in vitro cytotoxicity, PC-3 is 2.28 and the ADC/free SN-38 ratio of IC50, in vitro cytotoxicity, SK-MES-1 was 2.69.

For the origin of these results see patent US20160303253A1.
